Experimental data reported in the DeepSol protein solubility set.

assay: soluble on expression in E. coli; label from the status in PepcDB or PDB records

| Sequence | soluble on expression in E. coli |
| --- | --- |
| MSLWKNTIHSISSNLSLKNPATKDELTDIQKCLHVELPNDLYQLLQETNGIEGEYGDFIWSASKIKTENMSMRNIVDFKDLYMPFDCLLFFADGGNGDLFGYSILNGKVQRDDIYVWNHENDSRTWVALSLKTFMEWWESGKITIEGHHHHHH | soluble |
| MVQRVTIAPQGPEFSRFVMGYWRLMDWNMSARQLVSFIEEHLDLGVTTVDHADIYGGYQCEAAFGEALTLAPHLREKLQIVTKCGIATTARAENKLGHYITDRRHIILSAEQSLKNLATDYLDMLLIHRPDPLMDADDVAEAFQHLHQSGKVRHFGVSNFTPAQFTLLQSRLPFTLATNQVEISPVHQPLLLDGTLDQLQQLRIRPMAWSCLGGGRLFNDEAYQPLRQELSVIAQELNASSIEQVVYAWILRLPSQPLPIIGSGKIERVRAALEAETLSLTRQQWFRIRKAALGYDVP | not soluble |
| MIRNKAFVVRLYPNAAQTELINRTLGSARFVYNHFLARRIAAYKESGKGLTYGQTSSELTLLKQAEETSWLSEVDKFALQNSLKNLETAYKNFFRTVKQSGKKVGFPRFRKKRTGESYRTQFTNNNIQIGEGRLKLPKLGWVKTKGQQDIQGKILNVTVRRIHEGHYEASVLCEVEIPYLPAAPKFAAGVDVGIKDFAIVTDGVRFKHEQNPKYYRSTLKRLRKAQQTLSRRKKGSARYGKAKTKLARIHKRIVNKRQDFLHKLTTSLVREYEIIGTEHLKPDNMRKNRRLALSISDAGWGEFIRQLEYKAAWYGRLVSKVSPYFPSSQLCHDCGFKNPEVKNLAVRTWTCPNCGETHDRDENAALNIRREALVAAGISDTLNAHGGYVRPASAGNGLRSENHATLVVLEHHHHHH | soluble |
| HWCNIAGWPDFDTFLATMDHKHRKNIRQERAKVARSGVRIQSIHGDEATPIELKAMHHFYVNTFHQYGNAPALTLPFLTHLAKTIPRQLVLFMATLNGKLIGGSLCLRSAKTLYGRHWGGAALPGLHFETCYYQGIDYCLREGLTRFEPGAQGKHKIARG | not soluble |
| MLFNSFQAKIDPSLADLFRNSDKEPFPAMTHELPPEKSLKARLLEQEDERISNVLAHEKRFSTEPVVIDDVFMSRLCVDSQPGCSRIPDIDIANVFRDDLESCTLSSSEDEEEEEEPIGQISTFEMLHAPRKPIVWSEQELSDFDMKSRLLDMRMDHWDLARIANVPKRIAKGETVNLRMPRYSAEVVKQRIAKGVTDIFGHFSLVPHTLTKSHKPVAERKQILIERYHDLMNDFDYATRPGSVESKKYANLTKRLNLCNDFLSAPKLPHRLFPRLIIRSIRPPETPKEPVKRKMRESESDDSVIIIPRKIEKEKPRPTTENVVLKKVEMEKKRPRSPELVPKKIVMEKERPSSPDSEAEEREHNLRIEKERHQKELEFRREALRKREQEREEHKKRAQEELRRQMTAALEESTRRQAEMNRQIEDEARKRDELQRIAEEKKRKQLLEDQCRAKQEKEKRDAEELEQMRLNIARLAGTKDVENALKSPSLVEIVPPSDARAFEMIKWNAVKCKIPENWEKRKDKFYRVFEWPSDAAQRDIERDEVVSIPRSKPIVIPQEDTYITRNRIPLKLPPKVKQAVPALVVRNSNNATRTVVAATVNENGIQWPAETINIDEVVREIRGLMAPTRRNFAISLSPKTDEIDYQAINLNRLKSGIVYPFYFSDGLYWPLVFLKSSKNGKPEAQRHVEALTSCKSFSGKYASRYLLTTTKEEDSATKKFEDAYADSDGDWADYSTKPGRFSNRAGFKPHYDTSNDSFEVQKQRAVDSLNSQYEKERNELDAFGRYTDEYRKRKDRAQYQNHIKTHLRELVRDARLDAFSFKEEFKDFEGGFEDYPGTRVEPYENDWYSHGYTLYSHTRDAAYADYMHDVCKPYEDMLPPTEYHEIFNEWCFTPMLASLHYQLKKNAFDVLSPQDVKDMEARHRKYIGLVQKERKFSLEQALDVCKLTDYDKRQWTILHDQLVTHFKDFPSISGLVYDRNTNLLANVNRNLKHLFSTIYRDDSPPDDQF | soluble |
| MSSRHRLDLDGSGRGDRRRSPNRRSRSRSRSPHRRSSPDRKRQIGAVGNMKIQINPYNNQPFSNRYWAIWEKRSQLPVWEYKEKFMELLRNNQCITLVGETGSGKTTQIPQWAVEFMKQQQQGQPPGQARLVACTQPRRVAAMSVATRVAEEMDVVLGQEVGYSIRFEDCISERTVLKYCTDGMLLREAMNSPLLDKYKVLILDEAHERTLATDILMGLIKEIVRNRADIKVVIMSATLDAGKFQRYFEDCPLLSVPGRTFPVEIFFTPNAEKDYLEAAIRTVIQIHMVEEVEGDILLFLTGQEEIEEACKRIDREIQALGADAGALSCIPLYSTLPPAAQQRIFEPAPPNRPNGAISRKCVISTNIAETSLTIDGVVFVIDPGFSKQKVYNPRIRVESLLVCPISKASAMQRAGRAGRTKPGKCFRLYTETAYGSEMQDQTYPEILRSNLGSVVLQLKKLGTEDLVHFDFMDPPAPETLMRALELLNYLQAINDDGELTELGSLMAEFPLDPQLAKMLITSTELNCSNEILSITAMLSVPQCWVRPNEMRTEADEAKARFAHIDGDHLTLLNVYHSFKQNQEDPQWCYDNFINYRTMKTADTVRTQLSRVMDKYNLRRVSTDFKSRDYYLNIRKALVAGFFMQVAHLERSGHYVTVKDNQLVNLHPSTVLDHKPEWALYNEFVLTTKNFIRTVTDVRPEWLLQIAPQYYDLDNFPDGDTKRKLTTVMQTLQRNAGRGY | soluble |
| MGSDKIHHHHHHMLNMSNVPNDSVEEDGRLPTGKLPSAIGKNHRIAVVDTHFHLWKSQEIAPPSGIMADPSLFRDFDWSDYELAMQGVALEAAIHVQVHHGSEKAKSEYGRVERFAAEHAPIAGMIAWAPLESPGVEREIAELAQSPLVAGVRRLTQQEPDELFCARPQFVAGAKLLASYGLVCEVCVLEHQLKGVIALASACPELTIILDHLGKPHLAEPPTEHWLENMRILGMLENVVCKVAPTPLWASDPPLTAAHAAPFIEYVAEHFGWDRLIYGSNWPPLRILTDDASQWADIVFKTLHWAKADELGRLFSENARRIFRLNKGHR | not soluble |
| MPTKVLVNATYLHSYFREWVKGNIWIHGDRIVYAGERLPDRIDESCEIIDCRGYVLVPGYIEPHVHPFQLYNPHSFARYAAMYGTTTLLNDNLFFLLQLEHHHHHH | not soluble |
| MKVKIAFTTTDRIHVNAHFGWAREIDIYEISDHGYEFLETLKFEGDLKEDGSEDKITPKLEALNGCTIVYVVAIGGSAAARLIKGGVTPVKAKSEEEKIEEVLTKLVKTLKGNPPPWLRKALQPKTLNFADEVENEATV | not soluble |
| MKILAFETSTEACSVALHVDGAVRERFELAPRRHAELALPWAEQLLAEAGISRRQLDAIAVGRGPGAFSGVRLAIGIVQGIALALDLPVLAISTLQVLALRAPAEASHVLACIDARMGEVYAGLFERQGEALLTLGSEVVCAPEAVLLPQSTPQWAGVGTGLAAGEMPLQQRFAGRLSSVDAAALPHAADLLTLALPAALRGEGVAPERVEPAYLRDNVALTLVEQQAARAAKAAAVPR | soluble |
| LNKTLFLGYAFLLTMATTSDKLASRSKLPDGPTGSSEEEEEFLEIPPFNKQYTESQLRAGAGYILEDFNEAQCNTAYQCLLIADQHCRTRKYFLCLASGIPCVSHVWVHDSCHANQLQNYRNYLLPAGYSLEEQRILDWQPRENPFQNLKVLLVSDQQQNFLELWSEILMTGGAASVKQHHSSAHNKDIALGVFDVVVTDPSCPASVLKCAEALQLPVVSQEWVIQCLIVGERIGFKQHPKYKHDYVSH | soluble |
| AHHHHHHGSLVITPRRLHLGIIDPTGSLGRRFGSLGVALEGGYEIRITPADSLKIEAEKEDKETIKETIEKLNFEYDTGFGFYIEVRKSIPRHIGLGSTTQLTLGIAMGILKLLHKDVPVEEVAKILGRGKNSGVGIYAFKYGGFVVDGGVKDSVPPLLVRKDFPEDWAFLLVIPQVKRGFDEKEEQKIMEKPFGSASIAKEISYRILLGLLPALAEKNIEEFGRYLSTIQTLVGSSFSDFQGGEFREDIRLIVEFLNEITYGAGQSSWGPTVYGLIKRAEYQRVASRVAEFLDEQGIKAKIELGIPRNRGAEVKGESLFLERLIKSVSQ | soluble |
| MCWYGDPGATYRYSGVSHQPSPWHEVLADLRTRIEAFSGHVFNAVLCNRYRSGRDSMGWHADDEPELGERPFIASLSLGAERLFRIRHRGTGRTLDVPLRDGDLLLMGGELQSHWRHCVPRTARPCGERINLTFRRVVPRSLEHHHHHH | not soluble |
| LINQAEVDIYDIPVALITEQYMAYIHTMQELQLDVASEYLVMAATLLQIKSKMLLPKQEEIFDETFEYEEEDPREELMFRLIEYRRYKEAAQELKEKEGERSQVHTRLPDNLDDYLTEEERQRQSIQGVTLFDMLAAYQKLLKRRAYSRPRTSTVKVEEYSIDERMTDILMDLEKCNGKCRFQDLFV | not soluble |
